Patent US20250360220A1, “REGULATION OF TAU USING PROTEIN-LIKE POLYMERS AND USES THEREOF” (NORTHWESTERN UNIVERSITY, priority 2022, published 2025)

system: not listed separately; assay: Concentration dependence of polymer activation of Thioflavin T (no Tau); settings: 1 μM PLP, no Tau (FIG. 25)
Description: FIG. 25: Concentration dependence of polymer activation of Thioflavin T. TP4: PLP homopolymer incorporating SEQ ID: 4 as peptide sidechains. TP7: PLP homopolymer incorporating SEQ ID: 2 as peptide sidechains. TP4 and TP7 controls: PLP homopolymer, thioflavin T, no heparin, and PBS. The remainder of controls were at baseline and were removed from this FIG. 25 to improve readability. ThioT control: no Tau, no heparin, thioflavin T and PBS. ThioT heparin control: no Tau, no PLPs, thioflavin T, heparin, and PBS. n=3.
(§1) Tau Kinetics Thioflavin T Plate Reader Assay Protocol: First, controls and the effects of varying concentrations of K18 Tau were examined (FIG. 24). In FIG. 24, 1X Tau refers to 10 μM K18 Tau final concentration in the well with 100 μl total volume (i.e., 0.5× Tau refers to 5 μM K18 Tau and 2× Tau refers to 20 μM K18 Tau). Before PLPs were added to K18 Tau, the concentration at which the mimetic aggregative polymers would not activate Thioflavin T was evaluated. Based on the results depicted in FIG. 25, a PLP concentration of 1 μM was selected for further experimentations. […] Given the goal to investigate effects of the PLPs, it was determined that too high of a concentration could easily be adjusted, whereas too low of a concentration could result in a false negative with respect to impact.

| Substance | Thioflavin T signal of the polymer |
| --- | --- |
| TP7: PLP generated from peptide monomers characterized by SEQ ID: 2 (DRVQIVYKRR) | negligible signal |
| TP4: PLP generated from peptide monomers characterized by SEQ ID: 4 (VQIINKRR) | significant signal |

target: T1, K18 Tau (Homo sapiens, UniProt P10636); assay: Tau Kinetics Thioflavin T plate reader assay; assay type: biochemical; settings: 1 μM PLP/Pep; Avg P amplitude divided by Avg Tau amplitude x 100
T1 construct: K18 Tau was first expressed, collected, and purified; His tag (cleaved yes); made in house
Experimental: as §1
PLPs incorporating SEQ ID: 4 (“TP4”), SEQ ID: 2 (“TP7”), or SEQ ID: 10 (“TP12”) as peptide sidechains were tested. The PLPs, K18 Tau (10 μM) and Thio T (Sigma) at a final concentration of 10 μM was added, and aggregation was induced by the addition of a freshly prepared heparin sodium salt solution (Santa Cruz) at a final concentration of 44 μg/ml. For non-induced controls, assay buffer was added in place of heparin solution to a final volume of 100 μl per well. Aggregation reactions were carried out at 37° C. with continuous shaking and monitored via ThT fluorescence (excitation, 444 nm; emission, 485 nm; cutoff, 480 nm) in a Spectramax M5 microplate reader (Molecular Devices). Readings were taken every 5 min for a minimum of 24 h.
Table C. Summary of results depicted in FIGS. 26, 28, and 29 in the event the graphical representations are difficult to ascertain. Values are rounded to the nearest whole number. Tau 10 hr refers to the average amplitude (fluorescent intensity readout) of an n=6 of the control Tau (meaning no peptide or polymer added, just heparin, thioflavin T, and PBS) trace at 10 hour. The same applies to Tau 15 hr and Tau 20 hr. Avg Tau amplitude refers to the average of the amplitudes at 10, 15, and 20 hr in the previous columns. As Tau is the control for each individual plate, and these readings were done on three separate plates, there are 3 different sets of average amplitudes. Similar to the aforementioned, PLP or Pep 10 hr refers to the average amplitude (n=6 for PLP and n=3 for peptide) of the Tau trace treated with that compound at 10 hours. Avg P amplitude refers to the average of the amplitude at the 3 times, or the average of the 3 previous columns. PLP or Pep/Tau % is the result of dividing the Avg P amplitude by Avg Tau amplitude and multiplying by 100. % amp change refers to the change in amplitude given by subtracting Tau average amplitude from P average amplitude and dividing by Tau average amplitude and multiplying by 100.

T1 sequence (P10636 561-685 limits assumed): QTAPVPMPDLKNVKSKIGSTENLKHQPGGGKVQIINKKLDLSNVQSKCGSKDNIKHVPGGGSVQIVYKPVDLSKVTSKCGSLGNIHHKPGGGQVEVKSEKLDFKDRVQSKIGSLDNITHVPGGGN

| Substance | PLP or Pep/Tau % |
| --- | --- |
| TP7: PLP generated from peptide monomers characterized by SEQ ID: 2 (DRVQIVYKRR) | 110% |
| TP12: PLP generated from peptide monomers characterized by SEQ ID: 10 (VQPINK) | 34% |
| TP4: PLP generated from peptide monomers characterized by SEQ ID: 4 (VQIINKRR) | 143% |

same assay, conditions: 1 μM PLP/Pep; K18 Tau 10 μM, heparin, thioflavin T, PBS; 10 hr

| Substance | PLP or Pep 10 hr (average amplitude, fluorescent intensity readout, of the Tau trace treated with that compound) |
| --- | --- |
| TP7: PLP generated from peptide monomers characterized by SEQ ID: 2 (DRVQIVYKRR) | 633 |
| TP12: PLP generated from peptide monomers characterized by SEQ ID: 10 (VQPINK) | 116 |
| TP4: PLP generated from peptide monomers characterized by SEQ ID: 4 (VQIINKRR) | 730 |

same assay, conditions: 1 μM PLP/Pep; K18 Tau 10 μM, heparin, thioflavin T, PBS; 15 hr

| Substance | PLP or Pep 15 hr (average amplitude) |
| --- | --- |
| TP7: PLP generated from peptide monomers characterized by SEQ ID: 2 (DRVQIVYKRR) | 715 |
| TP12: PLP generated from peptide monomers characterized by SEQ ID: 10 (VQPINK) | 129 |
| TP4: PLP generated from peptide monomers characterized by SEQ ID: 4 (VQIINKRR) | 936 |

same assay, conditions: 1 μM PLP/Pep; K18 Tau 10 μM, heparin, thioflavin T, PBS; 20 hr

| Substance | PLP or Pep 20 hr (average amplitude) |
| --- | --- |
| TP7: PLP generated from peptide monomers characterized by SEQ ID: 2 (DRVQIVYKRR) | 672 |
| TP12: PLP generated from peptide monomers characterized by SEQ ID: 10 (VQPINK) | 143 |
| TP4: PLP generated from peptide monomers characterized by SEQ ID: 4 (VQIINKRR) | 961 |

same assay, conditions: 1 μM PLP/Pep; average of the amplitudes at 10, 15 and 20 hr

| Substance | Avg P Amplitude |
| --- | --- |
| TP7: PLP generated from peptide monomers characterized by SEQ ID: 2 (DRVQIVYKRR) | 673 |
| TP12: PLP generated from peptide monomers characterized by SEQ ID: 10 (VQPINK) | 129 |
| TP4: PLP generated from peptide monomers characterized by SEQ ID: 4 (VQIINKRR) | 876 |

same assay, conditions: 1 μM PLP/Pep; change in amplitude relative to control Tau

| Substance | % amp change |
| --- | --- |
| TP7: PLP generated from peptide monomers characterized by SEQ ID: 2 (DRVQIVYKRR) | 11% |
| TP12: PLP generated from peptide monomers characterized by SEQ ID: 10 (VQPINK) | −69% |
| TP4: PLP generated from peptide monomers characterized by SEQ ID: 4 (VQIINKRR) | 44% |

same assay, conditions: 10 μM PLP/Pep; Avg P amplitude divided by Avg Tau amplitude x 100

| Substance | PLP or Pep/Tau % |
| --- | --- |
| TP12: PLP generated from peptide monomers characterized by SEQ ID: 10 (VQPINK) | 9% |

same assay, conditions: 10 μM PLP/Pep; K18 Tau 10 μM, heparin, thioflavin T, PBS; 10 hr

| Substance | PLP or Pep 10 hr (average amplitude, fluorescent intensity readout, of the Tau trace treated with that compound) |
| --- | --- |
| TP12: PLP generated from peptide monomers characterized by SEQ ID: 10 (VQPINK) | 36 |

same assay, conditions: 10 μM PLP/Pep; K18 Tau 10 μM, heparin, thioflavin T, PBS; 15 hr

| Substance | PLP or Pep 15 hr (average amplitude) |
| --- | --- |
| TP12: PLP generated from peptide monomers characterized by SEQ ID: 10 (VQPINK) | 37 |

same assay, conditions: 10 μM PLP/Pep; K18 Tau 10 μM, heparin, thioflavin T, PBS; 20 hr

| Substance | PLP or Pep 20 hr (average amplitude) |
| --- | --- |
| TP12: PLP generated from peptide monomers characterized by SEQ ID: 10 (VQPINK) | 36 |

same assay, conditions: 10 μM PLP/Pep; average of the amplitudes at 10, 15 and 20 hr

| Substance | Avg P Amplitude |
| --- | --- |
| TP12: PLP generated from peptide monomers characterized by SEQ ID: 10 (VQPINK) | 36 |

same assay, conditions: 10 μM PLP/Pep; change in amplitude relative to control Tau

| Substance | % amp change |
| --- | --- |
| TP12: PLP generated from peptide monomers characterized by SEQ ID: 10 (VQPINK) | −91% |

same assay, conditions: two concentrations, 1 μM and 10 μM; with heparin (FIG. 29)

| Substance | Effect of inhibitor polymer on fibril formation of K18 Tau |
| --- | --- |
| TP12: PLP generated from peptide monomers characterized by SEQ ID: 10 (VQPINK) | significantly prevented fibril formation of K18 Tau |

system: not listed separately; assay: STEM / dry state TEM of PLP homopolymers; assay type: physicochemical; settings: prepared in H2O
Experimental: Using standard STEM protocols, PLPs having SEQ ID: 2 or SEQ ID: 4 as peptide monomers were prepared in H2O and visualized. […] Further, from the results depicted in FIG. 17, the homopolymer the beta sheet forming nature was confirmed. After putting the PLPs in HEPES LLPS buffer and heating to 37° C. (i.e., body temperature), a time course established the fibrilization of the polymer on dry state TEM. The same fibrilization was seen on purified K18 Tau protein 24 hours after incubation with heparin in PBS as depicted in FIG. 19. The remarkably similar characteristics was a testament to the mimetic capabilities of the PLP.

| Substance | Conformation by STEM |
| --- | --- |
| TP7: PLP generated from peptide monomers characterized by SEQ ID: 2 (DRVQIVYKRR) | beta sheet conformations |
| TP4: PLP generated from peptide monomers characterized by SEQ ID: 4 (VQIINKRR) | beta sheet conformations |

system: Mouse striatal cells HdhQ7/7; assay: Cell permeability assay with rhodamine labeled PLPs (confocal imaging); assay type: cell-based; settings: incubated with the cells for 24 hours
Experimental: Mouse striatal cells HdhQ7/7 from Coriell Institute were plated in 4-chamber 35 mm round glass-bottom dishes at a density of 50,000 per well. Cells were incubated for 24 hours in a 5% CO2 atmosphere at 33° C. Rhodamine labeled PLPs, rhodamine dye, and vehicle control in 10% FBS DMEM medium without phenol red were incubated with the cells for 24 hours, respectively. The cell nuclei (stained with Hoechst) were accomplished using a 405 nm laser with a 15% laser power. The cell membrane (stained with Wheat Germ Agglutinin, Alexa Fluor 488 Conjugate) was accomplished using a 488 nm laser with a 12% laser power. Cell imaging for Rhodamine fluorescence was accomplished using a 581 nm laser with an 8% laser power.

| Substance | Capability to permeate the striatal cells |
| --- | --- |
| TP7: PLP generated from peptide monomers characterized by SEQ ID: 2 (DRVQIVYKRR) | demonstrated the capability to permeate the striatal cells |
| TP4: PLP generated from peptide monomers characterized by SEQ ID: 4 (VQIINKRR) | demonstrated the capability to permeate the striatal cells |

system: not listed separately; assay: Liquid-liquid phase separation (LLPS) of rhodamine labeled PLPs; assay type: physicochemical; settings: HEPES buffer with PEG as crowding agent
Experimental: Solutions were dissolved in HEPES buffer: 10 mM HEPES buffer (pH 7.4) with 0.1 mM EDTA and 2 mM DTT, Media buffer: Dulbecco Modified Eagles Medium (high glucose) with 2 mM L-glutamine with 10% Fetal Bovine Serum, 1% Penicillin/Streptomycin, or water. Different crowding agents were also tested using HEPES buffer—PEG and heparin. For heparin, stock solutions of 10 μM of each rhodamine labeled PLP (using either SEQ ID: 4 or SEQ ID: 7 as peptide monomers) and 30 μM of heparin sodium salt were prepared in buffer and kept refrigerated. Before experiments, solutions were given at least 30 min to come to room temperature and experiments were carried out at room temperature. In the microscope room, 20 μL of PLP was added to 5 μL of heparin and mixed gently in a microcentrifuge tube. 5 μL of solution was immediately pipetted onto Fisherbrand glass microscope slides and coverslip applied. All reactions were visualized on Olympus BX53 Fluorescent Microscope using the 581 nm laser to monitor the rhodamine, as well as brightfield. LLPS occurred within 60 min of initiation.

| Substance | Liquid-liquid phase separation |
| --- | --- |
| TP4: PLP generated from peptide monomers characterized by SEQ ID: 4 (VQIINKRR) | induce LLPS phase condensates |

same assay, conditions: HEPES buffer with heparin, room temperature

| Substance | Liquid-liquid phase separation |
| --- | --- |
| TP7: PLP generated from peptide monomers characterized by SEQ ID: 2 (DRVQIVYKRR) | capable of liquid-liquid phase separation |
| TP4: PLP generated from peptide monomers characterized by SEQ ID: 4 (VQIINKRR) | capable of liquid-liquid phase separation |

system: not listed separately; assay: Circular dichroism; assay type: physicochemical; settings: after addition of heparin; 37° C., Tris buffer pH 7.4
Experimental: The proteomimetic similarities were further investigated using circular dichroism. Samples tested included K18 Tau, PLPs having SEQ ID: 4, SEQ ID: 2, and SEQ ID: 10, as well as said PLPs with K18 Tau. Each of these samples were dissolved in Tris buffer (10 mM Tris, 50 mM NaF, 0.5 mM dithiothreitol) and pH was adjusted to 7.4. Samples were tested with and without the addition of heparin. For samples containing heparin, samples were incubated in the presence of 10 μM heparin sodium salt for 24 hours. Polymers and peptides were run at 37° C., at a concentration of 3 mg/10 ml and K18 Tau was run at 10 uM. Parameters were: 1 mm quartz cuvette, continuous scan at 10 nm/min over 260 to 200 nm, 3 acquisitions averaged for one trace.

| Substance | CD conformation of PLPs |
| --- | --- |
| TP7: PLP generated from peptide monomers characterized by SEQ ID: 2 (DRVQIVYKRR) | beta sheet formation |
| TP12: PLP generated from peptide monomers characterized by SEQ ID: 10 (VQPINK) | beta sheet formation |
| TP4: PLP generated from peptide monomers characterized by SEQ ID: 4 (VQIINKRR) | beta sheet formation |

same assay, conditions: before heparin was added; 37° C., Tris buffer pH 7.4

| Substance | CD conformation of PLPs |
| --- | --- |
| TP7: PLP generated from peptide monomers characterized by SEQ ID: 2 (DRVQIVYKRR) | random coil formations |
| TP12: PLP generated from peptide monomers characterized by SEQ ID: 10 (VQPINK) | random coil formations |
| TP4: PLP generated from peptide monomers characterized by SEQ ID: 4 (VQIINKRR) | random coil formations |
